Laboratory results from the supplement of paper PMC9112550, “Optimization of the antimicrobial peptide Bac7 by deep mutational scanning” (BMC Biology, 2022).

test system: Escherichia coli TOP10; experiment: shrunken log2 fold change of peptide-encoding DNA abundance (4.5 h post-induction vs induction); higher = less antimicrobial activity (less host growth inhibition); conditions: time post-induction: 4.5 h; library: site-saturation at positions 5, 18, 19, 20
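Note: peptides expressed intracellularly from a pBAD plasmid library in pooled LB shake-flask culture, induced with 0.3% L-arabinose, DNA abundance read by NGS, three biological replicates, DESeq2 with apeglm shrinkage.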

Row | Sequence | shrunken log2 fold change
1 | RRIRLRPPRLPRPRPRPEFCPRP | 0.11
2 | RRIRLRPPRLPRPRPRPEFMPRP | -0.109
3 | RRIRLRPPRLPRPRPRPEFNPRP | -0.0571
4 | RRIRLRPPRLPRPRPRPEFRPRP | 0.126
5 | RRIRLRPPRLPRPRPRPEFSPRP | -0.013
6 | RRIRLRPPRLPRPRPRPEGLPRP | 0.206
7 | RRIRLRPPRLPRPRPRPEHYPRP | -0.00385
8 | RRIRLRPPRLPRPRPRPEITPRP | -0.11
9 | RRIRLRPPRLPRPRPRPEKHPRP | -0.262
10 | RRIRLRPPRLPRPRPRPEKLPRP | -0.00411
11 | RRIRLRPPRLPRPRPRPELNPRP | 0.145
12 | RRIRLRPPRLPRPRPRPELRPRP | 0.214
13 | RRIRLRPPRLPRPRPRPEMAPRP | 0.113
14 | RRIRLRPPRLPRPRPRPEQAPRP | 0.0554
15 | RRIRLRPPRLPRPRPRPEQMPRP | 0.126
16 | RRIRLRPPRLPRPRPRPEQYPRP | -0.122
17 | RRIRLRPPRLPRPRPRPESTPRP | 0.0274
18 | RRIRLRPPRLPRPRPRPEVIPRP | 0.178
19 | RRIRLRPPRLPRPRPRPEVRPRP | -0.0732
20 | RRIRLRPPRLPRPRPRPEWWPRP | 0.124
21 | RRIRLRPPRLPRPRPRPEYWPRP | -0.0516
22 | RRIRLRPPRLPRPRPRPFCQPRP | -0.078
23 | RRIRLRPPRLPRPRPRPFDAPRP | 0.509
24 | RRIRLRPPRLPRPRPRPFDIPRP | -0.0171
25 | RRIRLRPPRLPRPRPRPFDMPRP | -0.205

Row | Sequence | shrunken log2 fold change
26 | RRIRLRPPRLPRPRPRPFIEPRP | -0.372
27 | RRIRLRPPRLPRPRPRPFKYPRP | -0.482
28 | RRIRLRPPRLPRPRPRPFLHPRP | -0.306
29 | RRIRLRPPRLPRPRPRPFMIPRP | -0.186
30 | RRIRLRPPRLPRPRPRPFNYPRP | -0.817
31 | RRIRLRPPRLPRPRPRPFPIPRP | -0.0478
32 | RRIRLRPPRLPRPRPRPFPKPRP | -0.103
33 | RRIRLRPPRLPRPRPRPFSGPRP | -0.374
34 | RRIRLRPPRLPRPRPRPFSMPRP | -0.0455
35 | RRIRLRPPRLPRPRPRPFTCPRP | -0.115
36 | RRIRLRPPRLPRPRPRPFTFPRP | 0.0545
37 | RRIRLRPPRLPRPRPRPFTKPRP | -0.00525
38 | RRIRLRPPRLPRPRPRPFWDPRP | 0.184
39 | RRIRLRPPRLPRPRPRPFWQPRP | -0.0702
40 | RRIRLRPPRLPRPRPRPFYDPRP | 0.00534
41 | RRIRLRPPRLPRPRPRPGDTPRP | -0.238
42 | RRIRLRPPRLPRPRPRPGEYPRP | -0.0271
43 | RRIRLRPPRLPRPRPRPGFNPRP | -0.0341
44 | RRIRLRPPRLPRPRPRPGGMPRP | -0.16
45 | RRIRLRPPRLPRPRPRPGLLPRP | 0.0272
46 | RRIRLRPPRLPRPRPRPGLPPRP | 0.576
47 | RRIRLRPPRLPRPRPRPGLQPRP | -0.166
48 | RRIRLRPPRLPRPRPRPGLTPRP | -0.00899
49 | RRIRLRPPRLPRPRPRPGPCPRP | 0.121
50 | RRIRLRPPRLPRPRPRPGPIPRP | 0.195

Row | Sequence | shrunken log2 fold change
51 | RRIRLRPPRLPRPRPRPGQVPRP | 0.318
52 | RRIRLRPPRLPRPRPRPGREPRP | 0.231
53 | RRIRLRPPRLPRPRPRPGRPPRP | 0.526
54 | RRIRLRPPRLPRPRPRPGTEPRP | -0.0405
55 | RRIRLRPPRLPRPRPRPGTTPRP | -0.221
56 | RRIRLRPPRLPRPRPRPGVAPRP | 0.529
57 | RRIRLRPPRLPRPRPRPGYMPRP | -0.459
58 | RRIRLRPPRLPRPRPRPGYWPRP | -0.0133
59 | RRIRLRPPRLPRPRPRPHAIPRP | -0.346
60 | RRIRLRPPRLPRPRPRPHAMPRP | -0.0654
61 | RRIRLRPPRLPRPRPRPHCRPRP | -0.254
62 | RRIRLRPPRLPRPRPRPHEMPRP | -0.377
63 | RRIRLRPPRLPRPRPRPHFGPRP | 0.0847
64 | RRIRLRPPRLPRPRPRPHFIPRP | -0.249
65 | RRIRLRPPRLPRPRPRPHGLPRP | 0.123
66 | RRIRLRPPRLPRPRPRPHGPPRP | 0.101
67 | RRIRLRPPRLPRPRPRPHGQPRP | 0.0101
68 | RRIRLRPPRLPRPRPRPHIFPRP | -0.747
69 | RRIRLRPPRLPRPRPRPHIYPRP | -0.297
70 | RRIRLRPPRLPRPRPRPHKRPRP | 0.0273
71 | RRIRLRPPRLPRPRPRPHLGPRP | -0.105
72 | RRIRLRPPRLPRPRPRPHLTPRP | -0.241
73 | RRIRLRPPRLPRPRPRPHLVPRP | 0.0694
74 | RRIRLRPPRLPRPRPRPHMEPRP | -0.101
75 | RRIRLRPPRLPRPRPRPHMGPRP | -0.386
